Measurements: patent US20200324001A1 (NATIONAL UNIVERSITY CORPORATION OKAYAMA UNIVERSITY, published 2020)
One block for each binder: values may come before it.

Experiments:
[1] = biological target: T1, human recombinant mesothelin (r-MSLN) (human, UniProt Q13421 296-598, limits assumed); assay: BLI (BLItz, AR2G biosensor), unlabeled scFv against r-MSLN
T1 construct: also called recombinant MSLN; antigen r-MSLN

[2] = biological target: T1, human recombinant mesothelin (r-MSLN); assay: BLI (BLItz, AR2G biosensor), scFv after 89Zr labeling against r-MSLN
Procedure: DFO modification to each His-tag scFv was performed by incubation in bicarbonate buffer at a pH of 9.0 at 37° C. for 1 hour so that the ratio of dissolved chelating agent deferoxamine (p-SCN-Bn-DFO) to His-tag scFv was 3:1. ⁸⁹Zr was produced with a cyclotron (HM-12 cyclotron, Sumitomo Heavy Industries Ltd., Tokyo, Japan), and ⁸⁹Zr-oxalate was obtained. ⁸⁹Zr-oxalate, Na₂CO₃ (2M), and HEPES (0.5 M) were mixed so that the ratio of ⁸⁹Zr-oxalate to Na₂CO₃ (2M) to HEPES (0.5 M) was 2:1:10 and adjusted to a pH of 7.0, and the mixture was mixed with each DFO-modified His-tag scFv clone in which the solvent was replaced with gentisic acid physiological saline (5 mg/mL), followed by incubation at 37° C. for 30 minutes, thereby obtaining ⁸⁹Zr-DFO-scFvs. Unbound ⁸⁹Zr was removed by ultrafiltration using an Amicon Ultra 10K centrifugal filter. The radiochemical purity was determined by thin-layer chromatography-autoradiography (TLC-ARG) and HPLC (LC-20, Shimadzu Co., Kyoto, Japan). […] The in vitro stability of the radiolabeled scFvs after incubation in 50% human plasma/PBS at 37° C. for 6 hours was also analyzed. […] Immediately after mixing and after 6-hour incubation, a portion of the mixture of the radiolabeled scFv and the plasma was measured at 230 nm by HPLC, and the radioactivity was measured with a GABI star (Raytest, Straubenhardt, Germany). […]

[3] = biological target: T1, human recombinant mesothelin (r-MSLN); assay: BLI (BLItz, AR2G biosensor), scFv after DFO modification against r-MSLN
[4] = biological target: T2, mesothelin (MSLN) expressed on human cancer cell lines (human, UniProt Q13421 296-598); assay: flow cytometry on Hela cells; grade of MFI ratio to control (+ = 4.9-1.5)
T2 construct: whole, on cells; also called MSLN expressed in cancer cells
Procedure: (§1) A total of 28 cell lines were used for FCM analysis. The “MSLN exp ref” column indicates positive MSLN expression shown in previous studies. The “MSLN exp FCM” column indicates the ratio of the mean fluorescence intensity […] of the control; a ratio of 5 or more was indicated as “++,” a ratio of 4.9-1.5 was indicated as “+,” and a ratio of 1.4 or less is indicated as “−.”
(§2) The human cancer cell lines (Table 1) were treated with Cell Dissociation Buffer, enzyme-free, PBS (Gibco/Life Technologies, CA, USA) and harvested as single-cell suspensions. 1×10⁶ cells were washed once with cold PBS containing 2% FBS and 1 mM EDTA, and a full-length anti-human MSLN antibody, each anti-human MSLN cp3-scFv clone, or each His-tag scFv clone was used as a primary antibody. For the full-length anti-human MSLN antibody, an anti-KLH antibody (IgG2b isotype control) was used as a negative control, and an Alexa Fluor 488-labeled goat anti-mouse IgG antibody was used as a secondary antibody. […] The mean value of the fluorescence intensity (excluding the dead cell population) was obtained using BD FACSDiva software and calculated using Microsoft Excel.

[5] = biological target: T2, mesothelin (MSLN) expressed on human …; assay: flow cytometry on 22Rv1 cells; grade of MFI ratio to control (+ = 4.9-1.5)
Procedure: as §1, §2

[6] = biological target: T2, mesothelin (MSLN) expressed on human …; assay: flow cytometry on MKN45 cells; grade of MFI ratio to control (+ = 4.9-1.5)
Procedure: as §1, §2

[7] = biological target: T2, mesothelin (MSLN) expressed on human …; assay: flow cytometry on MKN74 cells; grade of MFI ratio to control (+ = 4.9-1.5)
Procedure: as §1, §2

[8] = biological target: T2, mesothelin (MSLN) expressed on human …; assay: flow cytometry on BxPC-3 cells; grade of MFI ratio to control (+ = 4.9-1.5)
Procedure: as §1, §2

[9] = biological target: T2, mesothelin (MSLN) expressed on human …; assay: flow cytometry on CFPAC-1 cells; grade of MFI ratio to control (+ = 4.9-1.5)
Procedure: as §1, §2

[10] = biological target: T2, mesothelin (MSLN) expressed on human …; assay: flow cytometry on HEC-1-A cells; grade of MFI ratio to control (+ = 4.9-1.5)
Procedure: as §1, §2

[11] = biological target: T2, mesothelin (MSLN) expressed on human …; assay: flow cytometry on SK-OV-3 cells; grade of MFI ratio to control (+ = 4.9-1.5)
Procedure: as §1, §2

[12] = biological target: T2, mesothelin (MSLN) expressed on human …; assay: flow cytometry on SiHa cells; grade of MFI ratio to control (++ = 5 or more)
Procedure: as §1, §2

[13] = biological target: T2, mesothelin (MSLN) expressed on human …; assay: flow cytometry on NCI-H596 cells; grade of MFI ratio to control (+ = 4.9-1.5)
Procedure: as §1, §2

[14] = biological target: T2, mesothelin (MSLN) expressed on human …; assay: flow cytometry on NCI-N87 cells; grade of MFI ratio to control (++ = 5 or more)
Procedure: as §1, §2

[15] = biological target: T2, mesothelin (MSLN) expressed on human …; assay: flow cytometry on OVCAR-3 cells; grade of MFI ratio to control (++ = 5 or more)
Procedure: as §1, §2

[16] = biological target: T2, mesothelin (MSLN) expressed on human …; assay: flow cytometry on NCI-H226 cells; grade of MFI ratio to control (++ = 5 or more)
Procedure: as §1, §2

T1 sequence (Q13421 other isoform, or with tags, fused parts or gaps limits assumed): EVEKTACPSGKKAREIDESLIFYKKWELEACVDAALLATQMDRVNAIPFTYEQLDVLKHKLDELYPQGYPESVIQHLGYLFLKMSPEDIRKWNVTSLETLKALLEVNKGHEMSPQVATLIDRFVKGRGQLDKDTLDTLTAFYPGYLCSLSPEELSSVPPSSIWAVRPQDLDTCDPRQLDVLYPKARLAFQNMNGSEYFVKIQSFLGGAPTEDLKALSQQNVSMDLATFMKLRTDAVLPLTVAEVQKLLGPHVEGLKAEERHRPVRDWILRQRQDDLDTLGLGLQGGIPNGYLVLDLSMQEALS
T2 sequence (Q13421 other isoform, or with tags, fused parts or gaps limits assumed): as above

B2: 89Zr-DFO-scFv H2a064 (scFv)
scFv: SYELTQPPSVSVSPGQTARITCSGDALPKHYASWYQQKPGQAPVLLIYKDTERPSGIPERFSGSSSGTTVTLTISGVQAEDEADYYCQSADSSVTVVFGGGTKLTVLGGGGSGGGGSGGGGSGGGGSQVQLVQSGGGLVQPGRSLRLSCAASGFTFDDYAMHWVRQAPGKGLEWVSGISWNSGSIGYADSVKGRFTISRDNAKNSLYLQMNSLRAEDTALYYCAKDIGSSGWYGAFDIWGQGTTVTVSSGG
modifications: deferoxamine (p-SCN-Bn-DFO) conjugated and loaded with 89Zr; sites not stated
notes: Same polypeptide as H2a064 His-tag scFv, DFO-modified and 89Zr-labeled; also called H2a064 after 89Zr labeling; 89Zr-labeled DFO-His-tag-scFv H2a064
Kd [2]: 78.2 nM

B6: 89Zr-DFO-scFv H1a050 (scFv)
scFv: SYELTQPPSVSVSPGQTARITCSGNALPKQYAYWYQQKPGQAPVLMIYKDSERPSGIPERFSGSSSGTTVTLTISGVQAEDEADYYCQSADSSHTYKVFGGGTKLTVLGGGGSGGGGSGGGGSGGGGSEVQLVQSGGGLVQPDRSLRLSCAASGFTFDDYAMHWVRQAPGKGLEWVSGISWNSGSIGYADSVKGRFTISRDNAKNSLYLQMNSLRAEDTALYYCAKDLGSYYGSGSGMDVWGQGTTVTVSSGG
modifications: deferoxamine (p-SCN-Bn-DFO) conjugated and loaded with 89Zr; sites not stated
notes: Same polypeptide as H1a050 His-tag scFv, DFO-modified and 89Zr-labeled; also called H1a050 after 89Zr labeling; 89Zr-labeled DFO-His-tag-scFv H1a050
Kd [2]: 46.2 nM

Second part, the binder after the results:

Kd [1]: 59.6 nM
B1: anti-human MSLN His-tag scFv clone H2a064 (scFv)
scFv: B2 scFv
notes: Unlabeled His-tag scFv expressed in CHO cells; also called His-tag scFv H2a064; His-Tag-scFv H2a064

Kd [3]: 114 nM
B3: DFO-modified His-tag scFv H2a064 (scFv)
scFv: B2 scFv
modifications: deferoxamine (p-SCN-Bn-DFO) conjugated, chelator to scFv ratio 3:1 in the reaction; sites not stated
notes: Same polypeptide as H2a064 His-tag scFv, carrying the DFO chelator; also called H2a064 after DFO modification; DFO-His-tag-scFv H2a064

Kd [1]: 4.68 nM
ratio of MFI of scFv clone H1a050 to MFI of control (flow cytometry) [4]: 1.5 to 4.9 ratio
ratio of MFI of scFv clone H1a050 to MFI of control (flow cytometry) [5]: 1.5 to 4.9 ratio
ratio of MFI of scFv clone H1a050 to MFI of control (flow cytometry) [6]: 1.5 to 4.9 ratio
ratio of MFI of scFv clone H1a050 to MFI of control (flow cytometry) [7]: 1.5 to 4.9 ratio
ratio of MFI of scFv clone H1a050 to MFI of control (flow cytometry) [8]: 1.5 to 4.9 ratio
ratio of MFI of scFv clone H1a050 to MFI of control (flow cytometry) [9]: 1.5 to 4.9 ratio
ratio of MFI of scFv clone H1a050 to MFI of control (flow cytometry) [10]: 1.5 to 4.9 ratio
ratio of MFI of scFv clone H1a050 to MFI of control (flow cytometry) [11]: 1.5 to 4.9 ratio
ratio of MFI of scFv clone H1a050 to MFI of control (flow cytometry) [12]: ≥ 5 ratio
ratio of MFI of scFv clone H1a050 to MFI of control (flow cytometry) [13]: 1.5 to 4.9 ratio
ratio of MFI of scFv clone H1a050 to MFI of control (flow cytometry) [14]: ≥ 5 ratio
ratio of MFI of scFv clone H1a050 to MFI of control (flow cytometry) [15]: ≥ 5 ratio
ratio of MFI of scFv clone H1a050 to MFI of control (flow cytometry) [16]: ≥ 5 ratio
B4: anti-human MSLN His-tag scFv clone H1a050 (scFv)
scFv: B6 scFv
notes: Unlabeled His-tag scFv expressed in CHO cells; also called His-tag scFv H1a050; His-Tag-scFv H1a050

Kd [3]: 3.38 nM
B5: DFO-modified His-tag scFv H1a050 (scFv)
scFv: B6 scFv
modifications: deferoxamine (p-SCN-Bn-DFO) conjugated, chelator to scFv ratio 3:1 in the reaction; sites not stated
notes: Same polypeptide as H1a050 His-tag scFv, carrying the DFO chelator; also called H1a050 after DFO modification; DFO-His-tag-scFv H1a050
